Among the data in patent US20120253009A1 are Pb EC50 values, retold here.

Bridge positions count the residues as written; N and C are the ends. Ends that are not written are not given here.

Sequences and labels used below:
B1: Fc-Loop-(SEQ ID NO: 8) (Fc fusion, part only; not given: Fc-Loop scaffold and insertion site, part only)
chain, part: CSSGGPTLREWQQCSRAQ
modifications: disulfide 1-14 (inferred); also: inserted into an Fc-Loop, Fc, site and spacers not given here
B2: Fc-Loop-(SEQ ID NO: 9) (Fc fusion, part only; not given: Fc-Loop scaffold and insertion site, part only)
chain, part: CSSGGPTLREWQQCQRAQ
modifications: disulfide 1-14 (inferred); also: inserted into an Fc-Loop, Fc, site and spacers not given here
B3: Fc-Loop-(SEQ ID NO: 10) (Fc fusion, part only; not given: Fc-Loop scaffold and insertion site, part only)
chain, part: CSSGGPTLREWQQCGRAQ
modifications: disulfide 1-14 (inferred); also: inserted into an Fc-Loop, Fc, site and spacers not given here

The target of this test is human mpl receptor (human) (UniProt P40238). Nature of the test: cell-based or functional assay.
The molecule B1 registered a Pb EC50 of 0.28 ng/mL.
To B2 belongs 0.27 ng/mL.
To B3 belongs 2.31 ng/mL.
